Source: patent publication US20210198341A1 (published 2021)
Where a chain is given by its changes, count along the chain named.

How the values were obtained:
Experiment in all cases: cytokine release
[1] = molecular target: T1, RGS5 peptide on HLA-DRA / HLA-DRB1*09:01 (human)
T1 peptide: AKEIKIKLGILLQKP

[2] = molecular target: T2, RGS5 peptide on HLA-DRA / HLA-DRB4*01:03 (human)
T2 peptide: AKEIKIKLGILLQKP

[3] = molecular target: T3, RGS5 peptide on HLA-DRA / HLA-DRB4*01:03 (human)
T3 peptide: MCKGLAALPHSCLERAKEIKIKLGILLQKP

[4] = molecular target: T4, RGS5 peptide on HLA-DRA / HLA-DRB1*09:01 (human)
T4 peptide: T3 peptide

[5] = molecular target: T5, HPV18-E7 peptide on HLA-DPA1*01:03 / HLA-DPB1*02:01 (human)
T5 peptide: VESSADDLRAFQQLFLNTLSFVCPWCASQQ

[6] = molecular target: T6, HPV18-E7 peptide on HLA-DPA1*02:02 / HLA-DPB1*05:01 (human)
T6 peptide: T5 peptide

[7] = molecular target: T7, HPV18-E7 peptide on HLA-DRA / HLA-DRB1*09:01 (human)
T7 peptide: RAFQQLFLNTLSFVCPWCA

[8] = molecular target: T8, HPV18-E7 peptide on HLA-DRA / HLA-DRB4*01:03 (human)
T8 peptide: RAFQQLFLNTLSFVCPWCA

B1: 09D01 (TCR, V domains shown)
Valpha: RKEVEQDPGPFNVPEGATVAFNCTYSNSASQSFFWYRQDCRKEPKLLMSVYSSGNEDGRFTAQLNRASQYISLLIRDSKLSDSATYLCVVNMRDSSYKLIFGSGTRLLVRP
Vbeta: GAVVSQHPSRVICKSGTSVKIECRSLDFQATTMFWYRQFPKKSLMLMATSNEGSKATYEQGVEKDKFLINHASLTLSTLTVTSAHPEDSSFYICSAHERITDTQYFGPGTRLTVL
binding result [1]: recognises
binding result [2]: recognises

B2: 09H05 (TCR, V domains shown)
Valpha: B1 Valpha with R93K
Vbeta: GAVVSQHPSRVICKSGTSVKIECRSLDFQATTMFWYRQFPKKSLMLMATSNEGSKATYEQGVEKDKFLINHASLTLSTLTVTSAHPEDSSFYICSALEGTSGKETQYFGPGTRLLVL
binding result [1]: recognises
binding result [2]: recognises

B3: 09E01 (TCR, V domains shown)
Valpha: GQQVMQIPQYQHVQEGEDFTTYCNSSTTLSNIQWYKQRPGGHPVFLIQLVKSGEVKKQKRLTFQFGEAKKNSSLHITATQTTDVGTYFCAGPGNQFYFGTGTSLTVIP
Vbeta: NAGVTQTPKFQVLKTGQSMTLQCAQDMNHEYMSWYRQDPGMGLRLIHYSVGAGITDQGEVPNGYNVSRSTTEDFPLRLLSAAPSQTSVYFCASSSWDRDQPQHFGDGTRLSIL
binding result [3]: recognises
binding result [4]: recognises

B4: 33D05 (TCR, V domains shown)
Valpha: AQSVTQLDSHVSVSEGTPVLLRCNYSSSYSPSLFWYVQHPNKGLQLLLKYTSAATLVKGINGFEAEFKKSETSFHLTKPSAHMSDAAEYFCVVSAIGYSSASKIIFGSGTRLSIRP
Vbeta: DTGVSQNPRHKITKRGQNVTFRCDPISEHNRLYWYRQTLGQGPEFLTYFQNEAQLEKSRLLSDRFSAERPKGSFSTLEIQRTEQGDSAMYLCASSLVAGGPAETQYFGPGTRLLVL
binding result [5]: recognises
binding result [6]: recognises

B5: 10F04 (TCR, V domains shown)
Valpha: QKEVEQDPGPLSVPEGAIVSLNCTYSNSAFQYFMWYRQYSRKGPELLMYTYSSGNKEDGRFTAQVDKSSKYISLFIRDSQPSDSATYLCAMSPRSGYALNFGKGTSLLVTP
Vbeta: DGGITQSPKYLFRKEGQNVTLSCEQNLNHDAMYWYRQDPGQGLRLIYYSQIVNDFQKGDIAEGYSVSREKKESFPLTVTSAQKNPTAFYLCASSMDAALGEKLFFGSGTQLSVL
binding result [7]: recognises
binding result [8]: recognises
